# Experimental data reported in US20140031283A1, “ANTICANCER FUSION PROTEIN” (ADAMED SP. Z O.O., priority 2011, published 2014).
# Several values for one entry are separate records, joined by “and”; a condition that tells them apart may be missing. Equal values may be shown once.
# Experiments:
# SW620 = assay: MTT cytotoxicity test, SW620 (human colorectal cancer); type: cell-based; conditions: Table 4, mean/SD part
# Text: (§1) MTT assay is a colorimetric assay used to measure proliferation, viability and cytotoxicity of cells. It consists in decomposition of a yellow tetrazolium salt MTT (4,5-dimethyl-2-thiazolyl)-2,5-diphenyltetrazolium bromide) to the water-insoluble purple dye formazan by mitochondrial enzyme succinate-tetrazolium reductase 1. MTT reduction occurs only in living cells. Data analysis consists in determining IC50 concentration of the protein (in ng/ml), at which the 50% reduction in the number of cells occurs in the population treated compared to control cells. Results were analyzed using GraphPad Prism 5.0 software. The test was performed according to the literature descriptions (Cells, J E, (1998). Cell Biology, a Laboratory Handbook, second edition, Academic Press, San Diego; Yang, Y., Koh, L W, Tsai, J H., (2004); Involvement of viral and chemical factors with oral cancer in Taiwan, Jpn J Clin Oncol, 34 (4), 176-183). Cell culture medium was diluted to a defined density (10^4-10^5 cells per 100 μl). Then 100 μl of appropriately diluted cell suspension was applied to a 96-well plate in triplicates. […] After stirring, the absorbance was measured at 570 nm (reference filter 690 nm). […]
# MES-SA = assay: MTT cytotoxicity test, MES-SA (human uterine sarcoma); type: cell-based
# Text: (§2) MTT assay is a colorimetric assay used to measure proliferation, viability and cytotoxicity of cells. It consists in decomposition of a yellow tetrazolium salt MTT (4,5-dimethyl-2-thiazolyl)-2,5-diphenyltetrazolium bromide) to the water-insoluble purple dye formazan by mitochondrial enzyme succinate-tetrazolium reductase 1. MTT reduction occurs only in living cells. Data analysis consists in determining IC50 concentration of the protein (in ng/ml), at which the 50% reduction in the number of cells occurs in the population treated compared to control cells. Results were analyzed using GraphPad Prism 5.0 software. The test was performed according to the literature descriptions (Cells, J E, (1998). Cell Biology, a Laboratory Handbook, second edition, Academic Press, San Diego; Yang, Y., Koh, L W, Tsai, J H., (2004); Involvement of viral and chemical factors with oral cancer in Taiwan, Jpn J Clin Oncol, 34 (4), 176-183). Cell culture medium was diluted to a defined density (10^4-10^5 cells per 100 μl). Then 100 μl of appropriately diluted cell suspension was applied to a 96-well plate in triplicates. Thus prepared cells were incubated for 24 h at 37° C. in 5% or 10% CO2, depending on the medium used, and then to the cells (in 100 μl of medium) further 100 μl of the medium containing various concentrations of tested proteins were added. In the case of combination hTRAIL114-281 and p21WAF effector protein, 100 μl of the medium containing mixture of hTRAIL114-281 and p21WAF effector protein in molar ratio 1:1 was added. After incubation of the cells with tested proteins over the period of next 72 hours, which is equivalent to 3-4 times of cell division, the medium with the test protein was added with […] of MTT working solution [5 mg/ml], and incubation was continued for 3 h at 37° C. in 5% CO2. Then the medium with MTT solution was removed, and formazan crystals were dissolved by adding 100 μl of DMSO. After stirring, the absorbance was measured at 570 nm (reference filter 690 nm).
# (§3) The results of in vitro cytotoxicity tests are summarized as IC50 values (ng/ml), which corresponds to the protein concentration at which the cytotoxic effect of fusion proteins is observed at the level of 50% with respect to control cells treated only with solvent. Each experiment represents the average value of at least two independent experiments performed in triplicates. As a criterion of lack of activity of protein preparations the IC50 limit of 2000 ng/ml was adopted.
# NCI-H460 = conditions: Table 4, mean/SD part
# Panc-1 = assay: MTT cytotoxicity test, Panc-1 (human pancreatic cancer); type: cell-based; conditions: Table 4, mean/SD part
# Text: as §1
# HepG2 = assay: MTT cytotoxicity test, HepG2 (human liver hepatoma); type: cell-based; conditions: Table 4, mean/SD part
# Text: as §1
# PLC/PRF/5 = assay: MTT cytotoxicity test, PLC/PRF/5 (human liver hepatoma); type: cell-based; conditions: Table 4, mean/SD part
# Text: as §1
# SK-MES-1 = assay: MTT cytotoxicity test, SK-MES-1 (human lung cancer); type: cell-based
# Text: as §2, §3
# MCF10A = assay: MTT cytotoxicity test, MCF10A (mammary epithelial cells); type: cell-based
# Text: as §2, §3
# MES-SA/Dx5 = assay: MTT cytotoxicity test, MES-SA/Dx5 (multidrug-resistant human uterine sarcoma); type: cell-based
# Text: as §2, §3
# Cells selected for this test included tumor cell lines that are naturally resistant to TRAIL protein (the criterion of natural resistance to TRAIL: IC50 for TRAIL protein >2000), as well as tumor cell lines sensitive to TRAIL protein and resistant to doxorubicin line MES-SA/DX5 as a cancer line resistant to conventional anticancer medicaments.
# A549 = assay: MTT cytotoxicity test, A549 (human lung cancer); type: cell-based
# Text: as §2, §3
# NIH: OVCAR-3 = assay: MTT cytotoxicity test, NIH: OVCAR-3 (human ovarian cancer); type: cell-based; conditions: Table 4, mean/SD part
# Text: as §1
# UM-UC-3 = assay: MTT cytotoxicity test, UM-UC-3 (human bladder cancer); type: cell-based; conditions: Table 4, mean/SD part
# Text: as §1
# MDA-MB-231 = assay: MTT cytotoxicity test, MDA-MB-231 (human breast cancer); type: cell-based; conditions: Table 4, mean/SD part
# Text: as §1
# [1] = continuous incubation over 72 h, test MTT
# Experimental for HCT-116: Data analysis consists in determining IC50 concentration of the protein (in ng/ml), at which the 50% reduction in the number of cells occurs in the population treated compared to control cells. Results were analyzed using GraphPad Prism 5.0 software. […] Cell culture medium was diluted to a defined density (10^4-10^5 cells per 100 μl). Then 100 μl of appropriately diluted cell suspension was applied to a 96-well plate in triplicates. Thus prepared cells were incubated for 24 h at 37° C. in 5% or 10% CO2, depending on the medium used, and then to the cells (in 100 μl of medium) further 100 μl of the medium containing various concentrations of tested proteins were added. […] After incubation of the cells with tested proteins over the period of next 72 hours, which is equivalent to 3-4 times of cell division, the medium with the test protein was added with 20 ml of MTT working solution [5 mg/ml], and incubation was continued for 3 h at 37° C. in 5% CO2. Then the medium with MTT solution was removed, and formazan crystals were dissolved by adding 100 μl of DMSO. After stirring, the absorbance was measured at 570 nm (reference filter 690 nm).
HCT116 IC50 (HCT-116; [1]) [mg/L],NCI-H460 mean (IC50) (NCI-H460) [mg/L],"HCT116 mean (IC50) (HCT-116; Table 4, mean/SD part) [mg/L]",Molecule,SW620 mean (IC50) (SW620) [mg/L],MES-SA IC50 (MES-SA; [1]) [mg/L],PANC-1 mean (IC50) (Panc-1) [mg/L],HepG2 mean (IC50) (HepG2) [mg/L],PLC/PRF/5 mean (IC50) (PLC/PRF/5) [mg/L],SK-MES-1 IC50 (SK-MES-1; [1]) [mg/L],"MCF10A mean (IC50) (MCF10A; Table 4, mean/SD part) [mg/L]",MCF10A IC50 (MCF10A; [1]) [mg/L],MES-SA/Dx5 IC50 (MES-SA/Dx5; [1]) [mg/L],"A549 mean (IC50) (A549; Table 4, mean/SD part, listed as Ex. 23^a)",A549 IC50 (A549; [1]) [mg/L],"MES-SA mean (IC50) (MES-SA; Table 4, mean/SD part) [mg/L]",OVCAR-3 mean (IC50) (NIH: OVCAR-3) [mg/L],UM-UC-3 mean (IC50) (UM-UC-3) [mg/L],MDA-MB-231 mean (IC50) (MDA-MB-231) [mg/L],"SK-MES-1 mean (IC50) (SK-MES-1; Table 4, mean/SD part) [mg/L]","MES-SA/Dx5 mean (IC50) (MES-SA/Dx5; Table 4, mean/SD part) [mg/L]"
0.00148,0.00711,,"Ex. 23: fusion protein: 13-amino acid inhibitor of RasGAP-Aurora B interactions with 8 arginine residues at N-terminus of TRAIL121-281, uPA and MMP sites (protein, synthesized, a fusion protein comprising: a fragment of TRAIL protein, a peptide acting as an inhibitor of interactions RasGAP - Aurora B, cleavage sites recognized by uPA and MMP, an arginine transporting domain and a cysteine stabilizing residue.) KWVVSHARLMYSFRRRRRRRRRVVRPLGLAGCRVAAHITGTRGRSNTLSSPNSKNEKALGRKINSWESSRSGHSFLSNLHLRNGELVIHEKGFYYIYSQTYFRFQEEIKENTKNDKQMVQYIYKYTSYPDPILLMKSARNSCWSKDAEYGLYSIYQGGIFELKENDRIFVSVTNEHLIDMDHEASFFGAFLVG",0.01192,0.00061,0.0229,0.01049,0.006821,0.00042,0.005196,0.00598,0.00013,0.2784 mg/L and 0.3589 mg/L,0.2387,,,,,,
,,0.041,"Ex. 3: fusion protein: 8-amino acid fragment of human fetoprotein at C-terminus of TRAIL121-281, MMP and uPA cleavage sites (protein, synthesized, a fusion protein comprising: a fragment of TRAIL protein, a fragment of human fetoprotein and cleavage sites recognized by uPA and MMP., fusion protein: 8-amino acid fragment of human fetoprotein at C-terminus of TRAIL121-281, MMP and uPA cleavage sites) RVAAHITGTRGRSNTLSSPNSKNEKALGRKINSWESSRSGHSFLSNLHLRNGELVIHEKGFYYIYSQTYFRFQEEIKENTKNDKQMVQYIYKYTSYPDPILLMKSARNSCWSKDAEYGLYSIYQGGIFELKENDRIFVSVTNEHLIDMDHEASFFGAFLVGPLGLAGRVVREMTPVNPG",,,,,,,,,,,,0.03618,0.02751,0.0204,0.02086,0.007755,0.03431
